Measurements as given in patent US20160184446A1, “METHOD OF INHIBITING BODY CAVITY FLUID ACCUMULATION” (Toray Industries, Inc., priority 2012, published 2016).

Tested on: gastric cancer peritoneal metastasis mouse models (GCIY-EGFP cells)
Assay: Ascites accumulation in gastric cancer peritoneal metastasis mouse models, systemic (subcutaneous) administration
Format: in vivo
Conditions: subcutaneous (systemic), 5,000 U/mouse/dose, twice a week for 4 weeks; ascites collected 2 weeks after final administration; vs PBS control
Description: Gastric cancer peritoneal metastasis mouse models were produced by transplanting human gastric cancer cells, GCIY-EGFP cells, intraperitoneally into male KSN nude mice in the same manner as in Example 2.
Administration was initiated on the day after transplantation and performed twice a week for 4 weeks. Phosphate buffer (PBS) was administered to the control group in the same manner. Ascites was collected from the gastric cancer peritoneal metastasis mouse models under anesthesia 2 weeks after the final administration and the liquid volume was measured.
The vertical axis represents the amount of ascites (median; mL).

B1: PEG-mIFN-β: one PEG molecule with a molecular weight of 42,000 covalently bound to recombinant mouse interferon-β (conjugate, UniProt P01575 22-182, looked up)
Interferon beta: INYKQLQLQERTNIRKCQELLEQLNGKINLTYRADFKIPMEMTEKMQKSYTAFAIQEMLQNVFLVFRNNFSSTGWNETIVVRLLDELHQQTVFLKTVLEEKQEERLTWEMSSTALHLKSYYWRVQRYLKLMKYNSYAWMVVRAEIFRNFLIIRRLTRNFQN
modifications: 42 kDa PEG
With B1 the “accumulation of ascites (amount of ascites)” value was “remarkably inhibited”.
